First the molecules themselves.
T1: OX40 on OX40-overexpressing cells (OX40过表达细胞表面OX40) (UniProt P43489 29-277, limits assumed)
T1 construct: whole, on cells; The cell line and the construct of the overexpressing cells are not described; also called CD134; TNFRSF4
T1 sequence (looked up): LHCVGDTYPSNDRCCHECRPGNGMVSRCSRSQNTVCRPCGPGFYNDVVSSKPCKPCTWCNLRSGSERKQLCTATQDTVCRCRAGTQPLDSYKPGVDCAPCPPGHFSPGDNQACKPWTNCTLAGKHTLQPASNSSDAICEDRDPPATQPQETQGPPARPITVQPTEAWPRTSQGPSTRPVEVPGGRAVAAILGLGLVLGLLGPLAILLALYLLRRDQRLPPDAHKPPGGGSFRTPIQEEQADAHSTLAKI

B1: 1F10-12-3 (antibody, V domains shown)
VH: QVQLQESGPGLVKPSGTLSLTCAVSGGSISNSNWWNWVRQPPGRGLEWIGEIYHSGSTNYNPSLKSRVTISVDKSKNQFSLKLTSVTAADTAVYYCARYSTPFFDYWGQGNLVTVSS
VL: DIQMTQSPSSLSASVGDRVTITCRASQSISNYLNWYQQKQGKAPKLLIYGASSLQSGVPSRFSGSGSGTDFTLTINSLQPEDFATYCCQQSYNNPLTFGGGTKVEIKR
B2: 30B1-3 (antibody, V domains shown)
VH: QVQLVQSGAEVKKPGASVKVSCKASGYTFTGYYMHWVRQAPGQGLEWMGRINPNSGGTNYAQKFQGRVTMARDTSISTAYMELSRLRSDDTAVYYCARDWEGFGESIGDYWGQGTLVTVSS
VL: EIVLTQSPGTLSLSPGERATFSCRASQSVSGSYLAWYQQKPGQAPRLLIHGASSRATGIPDRFSGSGSGTDFTLTISRLEPEDFAVYYCLQYGSSPLTFGGGTKVEIKR
B3: 55H6-6 (antibody, V domains shown)
VH: QVQLVQSGAEVKKPGASVKVSCKASGYTFTSYGISWVRQAPGQGLEWMGWISAYNGHTNYAQKLQGRVTMTTDTSTNTAYMELWSLRSDDTAVYYCTSDYGDYWGQGTLVTVSS
VL: DVVVTQSPLSLPVTLGQPASISCRSSQSLVYSDGNTNLYWFQQRPGQSPRRLIYQVSNRDSGVPDRFSGSGSGTDFTLKISRVEAEDVGVYYCMQGTHWPPALTFGGGTEVEIKR
B4: 24F8-7 (antibody, V domains shown)
VH: QVQLQESGPGLVKPSGTLSLTCAVSGGSISSYNWWSWVRQPPGKGLEWIGEIYHSGSTNYNPSLKSRVTISVDKSKNQFSLKLSSVTAADTAVYYCARDEDYYGSGNYYHWGQGTLVTVSS
VL: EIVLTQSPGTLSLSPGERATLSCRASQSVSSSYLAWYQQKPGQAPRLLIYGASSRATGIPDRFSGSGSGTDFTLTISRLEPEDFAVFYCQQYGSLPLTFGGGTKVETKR
B5: 15A7-6 (antibody, V domains shown)
VH: QVQLQESGPGLVKPSGTLSLTCAVSGGSINSSSWWSWVRQPPGKGLEWIGEIYHSGDTNYNPSLKSRVAISVDKSKNQFSLKLSSVTAADTAVYYCARDQADYFGSGNYVYWGQGTLVTVSS
VL: EIVLMQYPGTLSLSSGERRVLSCRPSQSVSSSYLAWYQQKPGQAPRLLIYGASSRASGIPDRFSGSGSGTDFTLTISRLEPEDFAVYYCQQYGSLPITFGQGTRVEIKR
B6: 21D2-3 (antibody, V domains shown)
VH: QVQLVESGGGLVKPGGSLRLSCAASGFTFSDYYMSWIRQAPGKGLEWVSYISSSGTTIYCADSVKGRFTISRDNAKNSLYLQMNSLRAEDTAVYYCARDSSTWYEGNYFDYWGQGTLVTVSS
VL: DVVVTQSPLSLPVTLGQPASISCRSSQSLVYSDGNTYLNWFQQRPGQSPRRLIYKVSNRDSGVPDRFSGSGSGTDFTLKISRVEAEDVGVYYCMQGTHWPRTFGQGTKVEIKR
B7: 24F10-1 (antibody, V domains shown)
VH: QVQLQESGPGLVKPSGNLSLTCVVSGASIINNNWWTWVRQSPGKGLEWIGEIFHSGTTNYNPSLKNRVTISVDKAKNQFSLNLKSVTAADTAVYYCVAYVSGTYYNFDYWGQGTLVTVSS
VL: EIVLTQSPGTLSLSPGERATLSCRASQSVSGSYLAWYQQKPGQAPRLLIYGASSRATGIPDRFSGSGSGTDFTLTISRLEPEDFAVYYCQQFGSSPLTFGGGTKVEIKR
B8: 14D3-7-3 (antibody, V domains shown)
VH: EVQLVESGGGLVKPGGSLRLSCAASGFTFSNAWMSWVRQAPGKGLEWVGRIKRKTDGGTTDYATPVKGRFTISRDASKNTLYLQMNSLKTEDTAVYYCTSAARRGYFDIWGRGTLVTVSS
VL: EIVLTQSPGTLSLSPGERATLSCRASQSVSSRYLAWYQQKPGQAPRLLIYGASNRATGMPDRFSGSGSGTDFTLTISRLEPEDFAMYYCQQYGSSPITFGQGTRLEIKR
B9: 24E10-4 (antibody, V domains shown)
VH: QVQMQESGPGLVKPSGTLSLTCAVSGGSISSSKWWSWVRQPPGKGLEWIGEIYHSGSTNYNPSLKSRVTISIDKSKNQFSLRLTSVTAADTAVYYCARGDVLLWFGGQGTLVTVSS
VL: EIVLTQSPGTLSLSPGERATLSCWASQSVSSTYLAWYQQKPGQAPRLLIYGASIRATGIPDRFSGSGSGTDFTLTISSLEPEDFAVYYCQQYGSSPITFGQGTRLEIKR
B10: 20D2-12 (antibody, V domains shown)
VH: QVQLVESGGGLVKPGGSLRLSCAASGFTFSDYYMSWIRQAPGRGLEWISYISGSDSTIYYEDSVMGRFTISRDNAKNSLYLQMNSLRAEDTAVYYCARDRDVYGYSGYGYFDYWGQGTLVTVSS
VL: EIVLTQSPGTLSLSPGERATLSCRASQSVSSRYLAWYQQKPGQAPRLLIYGASNRATGMPDRFSGSGSGTDFTLTISRLEPEDFAVYYCQQYGSSPITFGQGTRLEIKR
B11: 20G6-7-1 (antibody, V domains shown)
VH: QVQLQESGPGLVKPSGTLSLTCAVSGGSISSSNWWSWVRQPPGKGLEWIGEIYHSGNTNYNPSLKSRVTISVDKSKNQFSLKLSSVTAADTAVYYCARGGTTFDYWGQGTLVTVSS
VL: EIVLMQYPGTLSLSSGERATLSCRASQSVSSRYLAWYQQKPGQAPRLLIYGASNRASGMPDRFSGSGSGTEFTLTISSLEPEDFAMYYCQQYGSSPITFGQGTRVEIKR

In CN114106174A (SUZHOU SCENE MEDICAL SCIENCE AND TECH LIMITED COMPANY, dated 2022) one finds Y586通道PE荧光值 data, which are given here for eleven molecules.

The target in this assay is T1, OX40 on OX40-overexpressing cells …. Nature of the assay: flow cytometry, hybridoma supernatant on OX40-overexpressing cells, goat anti-mouse IgG-PE. A general note: In flow cytometry, cells or beads pass a laser one at a time.
In turn, B1 returned a Y586通道PE荧光值 of 170000. Take B2: the Y586通道PE荧光值 came out at 208000. Turning to B3, the Y586通道PE荧光值 came to 479000. In turn, B4 gave a Y586通道PE荧光值 of 437000. B5 registered a Y586通道PE荧光值 of 181000. In turn, B6 yielded a Y586通道PE荧光值 of 202000. In turn, B7 displayed a Y586通道PE荧光值 of 274000. B8 displayed a Y586通道PE荧光值 of 274000. Take B9: the Y586通道PE荧光值 was 344000. Next, B10: 540000. Turning to B11, the Y586通道PE荧光值 is 352000.
